FI and Average fluorescence intensity data for six molecules are collected here from patent US20190224291A1 (GENOIMMUNE THERAPEUTICS, published 2019).

Assay [1] has as its target T1, HLA-A0201 on T2 cells (human).
T1 construct: MHC class I on TAP-deficient T2 cells; also called HLA-A2; HLA-A0201 molecule
Briefly: T2 cell peptide binding assay, fluorescence index = (MFI sample - MFI background)/MFI background, peptide 100 uM.
Description: (§1) Cells were collected by centrifugation of the cell culture at 200 g for 5 minutes. The collected cells were washed twice with PBS, and then directly incubated with FITC-conjugated anti-HLA-A0201 monoclonal antibody at 4° C. for 30 minutes. The mean fluorescence intensity (MFI) was then detected and analyzed by flow cytometer (BD FACSJazz™) and its software. The fluorescence index (FI) was calculated by using the following formula:

Assay [2] addresses T1, HLA-A0201 on T2 cells. Briefly: T2 cell peptide binding assay, flow cytometry with FITC anti-HLA-A0201, peptide 100 uM. (A flow cytometer gives signals particle by particle.)
Description: as §1

In assay [1], FMVDGSWSI (Synthetic peptide, purity >90%) [wild-type peptide FMVDGSWSI] had an FI of 2.38. In addition, the Average fluorescence intensity in assay [2] was 772.
The matching figures for FLVDGFWSL (Synthetic peptide) [variant peptide FLVDGFWSL]: 1.91 and 664.
Consider FLVDGFWSI (Synthetic peptide) [variant peptide FLVDGFWSI], for which the FI in assay [1] was found to be 2.07. The molecule further registered an Average fluorescence intensity in assay [2] of 701.
The matching figures for FMVDGFWSV (Synthetic peptide) [variant peptide FMVDGFWSV]: 2.16 and 721.
Molecule FLVDGFWSV (Synthetic peptide) [variant peptide FLVDGFWSV] yielded an FI in assay [1] of 1.81. Moreover, the Average fluorescence intensity in assay [2] worked out at 642.
With FMVDGFWSL (Synthetic peptide) [variant peptide FMVDGFWSL], the FI in assay [1] stood at 2.28. Also, the Average fluorescence intensity in assay [2] came out at 748.
